In paper PMC3581551, “The N-Terminal β-Sheet of Peroxiredoxin 4 in the Large Yellow Croaker Pseudosciaena crocea Is Involved in Its Biological Functions” (PLoS ONE, 2013):

Molecular target: the molecule itself
Test: crystal structure; reduced form, 1.90 Å, space group C2; five subunits in the asymmetric unit (two dimers and a monomer), decamer (pentamer of dimers) by crystal symmetry; crystals at 16°C, 10% PEG MME 5,000, 0.1 M HEPES-NaOH pH 8.0, with 14 mM β-mercaptoethanol and 10 mM DTT

B1: Pseudosciaena crocea peroxiredoxin 4 (Prx4), mature protein without the 29-residue signal peptide (enzyme)
chain: EEAAHVKNSQCHNYAGGHVYPGEAFRVPVSDHSLHLSKAKISKPAPQWEGTAVINGEFKELKLSDYRGKYLVFFFYPLDFTFVCPTEIIAFSDRVHEFRAINTEVVACSVDSQFTHLAWIITPRKQGGLGPMKIPLLSDLTHQISKDYGVYLEDQGHTLRGLFIIDEKGVLRQITMNDLPVGRSVDETLRLVQAFQYTDKHGEVCPAGWKPGSDTIIPDPSGKLKYFDKMK
stoichiometry N: 10
